Data published in publication PMC5898713.

Tests used:
[1] = molecular target: PhyT (formerly PhyP), T25 fusion; test: BACTH β-galactosidase assay; settings: Overnight cultures containing 0.5 mM IPTG and antibiotics for selection, 30°C; three biological replicates; parent: est. 3000; read off a plot
[2] = molecular target: NepR wild-type, T25 fusion; test: BACTH β-galactosidase assay; settings: Overnight cultures containing 0.5 mM IPTG and antibiotics for selection, 30°C; three biological replicates; parent: est. 1500; read off a plot

| response [1] | response [2] | Substance |
| --- | --- | --- |
| 1100 Miller units | 300 Miller units | PhyR wild-type, T18 fusion D194A |
| 780 Miller units | 6900 Miller units | PhyR wild-type, T18 fusion D194A; E235A |
| 3100 Miller units | 7100 Miller units | PhyR wild-type, T18 fusion E235A |
